Where no end group is shown, it is not given here. [ ]: non-standard residue; d: D form. pS = N[C@@H](COP(=O)(O)O)C(=O)O
Key:
[1] = molecular target: SHARP (human SPOC domain) SPOC domain, 3477-3664 (UniProt Q96T58); experiment: anti-Flag co-IP, NCoR blot; details: reference: NCoR-C wild type; sites S2449,S2451
[2] = substrate: SPOC domain from murine SHARP, residues 3474-3643 (mouse) (UniProt Q62504); experiment: ITC

Row | Molecule | binding against the reference [1] | Kd [2]
1 | NCoR NCoR-C, 1942-2453 (from UniProt Q60974) NCoR-C S2449A/S2451A | lost | 
2 | REPAPLLSAQYETL[pS]D[pS]DD [NCoR C-terminal peptide, double-phosphorylated] |  | 50 nM

From publication PMC4889922
